Results published in article PMC8441438, “Dynamic regulation of mitotic ubiquitin ligase APC/C by coordinated Plx1 kinase and PP2A phosphatase action on a flexible Apc1 loop” (The EMBO Journal, 2021).

B1: MBP-fused Apc1-loop^500 WT fragment [Xenopus tropicalis] / Plx1 (polo-like kinase homolog in Xenopus laevis), endogenous [Xenopus laevis (endogenous in egg extracts)] (parent)
chain 1: MAQVAGKKLTVAPEAAKPPGIPGSSSAVKEIPEILVDPRTRRRYLRGRFLGKGGFAKCYEITDLESREVFAGKIVPKTMLLKPHQKDKMTMEIAIQRSLDHRHVVGFHGFFEDNDFVYVVLELCRRRSLLELHKRRKAVTEPEARYYLKQTISGCQYLHSNRVIHRDLKLGNLFLNDEMEVKIGDFGLATKVEYDGERKKTLCGTPNYIAPEVLGKKGHSFEVDIWSIGCIMYTLLVGKPPFETSCLKETYMRIKKNEYSIPKHINPVAAALIQKMLRSDPTSRPTIDDLLNDEFFTSGYIPSRLPTTCLTVPPRFSIAPSTIDQSLRKPLTAINKGQDSPLVEKQVAPAKEEEMQQPEFTEPADCYLSEMLQQLTCLNAVKPSERALIRQEEAEDPASIPIFWISKWVDYSDKYGLGYQLCDNSVGVLFNDSTRLIMYNDGDSLQYIERNNTESYLNVRSYPTTLTKKITLLKYFRNYMSEHLLKAGANTTPREGDELARLPFLRTWFRTRSAIILHLSNGTVQINFFQDHTKIILCPLMAAVSYIDEKREFRTYKLSLIQEFGCCKELASRLRYARTMVEKLQSSKSAVAHVKASA
chain 2: GLAAPSLGMSNPMPRPSTPLESISTPAKPLNKHLAPMDEAGMLSPVPELRDSTRLHESTYLDDCTFHQFG
B2: Plx1-PBD WT (polo-box domain of Plx1) [Xenopus laevis] / MBP-fused Apc1-loop^500 WT fragment [Xenopus tropicalis] (parent)
chain 1: EPADCYLSEMLQQLTCLNAVKPSERALIRQEEAEDPASIPIFWISKWVDYSDKYGLGYQLCDNSVGVLFNDSTRLIMYNDGDSLQYIERNNTESYLNVRSYPTTLTKKITLLKYFRNYMSEHLLKAGANTTPREGDELARLPFLRTWFRTRSAIILHLSNGTVQINFFQDHTKIILCPLMAAVSYIDEKREFRTYKLSLIQEFGCCKELASRLRYARTMVEKLQSSKSAVAHVKASA
chain 2: B1 chain 2

Variants of: B1
Assay: MBP pull-down (amylose beads) from Xenopus egg anaphase extracts, immunoblot with Plx1 antibody, quantified
Details: anaphase extracts supplemented with non-degradable cyclin B, 23°C, 1 h, parent: 1, read off a plot

| ratio to parent [A.U.] | Variant |
| --- | --- |
| 0.51 | chain 2 GLAAPSLGMSNPMPRPSAPLESISAPAKPLNKHLAPMDEAGMLSPVPELRDSTRLHESTYLDDCTFHQFG [chain 2 T18A T25A] |
| 0.61 | chain 2 GLAAPSLGMSNPMPRPSTPLESISAPAKPLNKHLAPMDEAGMLSPVPELRDSTRLHESTYLDDCTFHQFG [chain 2 T25A] |

Continued, variant first:

| Variant | ratio to parent [A.U.] |
| --- | --- |
| chain 2 GLAAPSLGMSNPMPRPSTPLESISTPAKPLNKHLAPMDEAGMLAPVPELRDSTRLHESTYLDDCTFHQFG [chain 2 S44A] | 0.5 |
| chain 2 GLAAPSLGMSNPMPRPSAPLESISTPAKPLNKHLAPMDEAGMLSPVPELRDSTRLHESTYLDDCTFHQFG [chain 2 T18A] | 0.92 |

Variants of: B2
Assay: MBP pull-down (amylose beads), SDS-PAGE with Coomassie brilliant blue staining, quantified as bound Plx1-PBD per Apc1-loop500
Details: with MBP-fused Apc1-loop^500 WT fragment [Xenopus tropicalis]; input 10 µg Plx1-PBD, 15 min; Apc1-loop500 pre-incubated in anaphase extracts with non-degradable cyclin B, 23°C, 1 h; parent: 1.1; read off a plot

| response [A.U.] | Variant |
| --- | --- |
| 0.07 | chain 1 EPADCYLSEMLQQLTCLNAVKPSERALIRQEEAEDPASIPIFWISKWVDYSDKYGLGYQLCDNSVGVLFNDSTRLIMYNDGDSLQYIERNNTESYLNVRSYPTTLTKKITLLKYFRNYMSEHLLKAGANTTPREGDELARLPFLRTWFRTRSAIILHLSNGTVQINFFQDATMIILCPLMAAVSYIDEKREFRTYKLSLIQEFGCCKELASRLRYARTMVEKLQSSKSAVAHVKASA [chain 1 H171A K173M] |

Same assay, conditions: with MBP-fused Apc1-loop^500 WT fragment [Xenopus tropicalis]; input 15 µg Plx1-PBD, 15 min; Apc1-loop500 pre-incubated in anaphase extracts with non-degradable cyclin B, 23°C, 1 h; parent: 1.4; read off a plot

| response [A.U.] | Variant |
| --- | --- |
| 0.09 | chain 1 EPADCYLSEMLQQLTCLNAVKPSERALIRQEEAEDPASIPIFWISKWVDYSDKYGLGYQLCDNSVGVLFNDSTRLIMYNDGDSLQYIERNNTESYLNVRSYPTTLTKKITLLKYFRNYMSEHLLKAGANTTPREGDELARLPFLRTWFRTRSAIILHLSNGTVQINFFQDATMIILCPLMAAVSYIDEKREFRTYKLSLIQEFGCCKELASRLRYARTMVEKLQSSKSAVAHVKASA [chain 1 H171A K173M] |

Variants of: B2
Assay: MBP pull-down (amylose beads), SDS-PAGE with Coomassie brilliant blue staining, quantified
Details: anaphase extracts supplemented with non-degradable cyclin B, 23°C, 1 h, then 10 µg WT Plx1-PBD for 15 min, parent: 1, read off a plot

| ratio to parent | Variant |
| --- | --- |
| 0.03 | chain 2 GLAAPSLGMSNPMPRPSAPLESISAPAKPLNKHLAPMDEAGMLSPVPELRDSTRLHESTYLDDCTFHQFG [chain 2 T18A T25A] |
